System: IL36γ-induced NFκB activity
Test: HEKBlue-IL36 cell-based reporter assay
Conditions: HEKBlue-IL36, FIG. 22
Protocol: Inhibition by STLX2012 was measured by the HEKBlue-IL36 cell-based reporter assay. The HEK-Blue IL36 (Invivogen, Cat #hil36r-hkb) cell line was used to monitor NFκB activity upon stimulation with IL36γ cytokine. In this cell line, the secreted embryonic alkaline phosphatase reporter gene (SEAP) is inducibly expressed under the control of IFN-β minimal promoter fused to NFκB/AP-1. Specificity to IL36γ cytokine was achieved by blockage of TNF-α and IL1 response. Cells are maintained in the presence of zeocin (100 μg/ml) and blasticidin (10 μg/ml).

B1: 74804_12A21B: anti-IL1RAP mAb; VH SEQ ID NO:6, VL SEQ ID NO:23, κ light chain (antibody, V domains shown)
VH: QVQLLQSGAEVKKPGSSVKVSCKASGGTFSIYAIDWVRQAPGQGLEWMGGIIPIFGTANSAQKFQGRVTITADKSTSTAYMELSSLRSEDTAVYYCARNGATSDAFDMWGQGTMVTVSS
VL: EIVLTQSPGTLSLSPGERATLSCRASLSVSSNYLAWFQQRPGQAPRLLIHGVSRRATGIPDRFSGSGSGTDFTLTISRLEPEDFAVYYCQQYGSSPLTFGGGTKVEIK
modifications: 74804_12A21B VH and 74804_29D13A VH; 74804_12A21B VL
B1 was tested, and the “Inhibition of IL36γ-induced NFκB activity” value was “inhibition of the IL36γ-induced NFκB activity in a dose-dependent manner”.
